Experimental data: paper PMC5737377, “Structural insights into RapZ-mediated regulation of bacterial amino-sugar metabolism” (Nucleic Acids Research, 2017)

Tests used:
[1] = test system: RapZ-CTD (Strep-tag cleaved) (Escherichia coli); assay: BLI; details: 1 mM Mg2+; Kd values only in figure; incomplete dissociation; 5' biotin; BLI: 25 mM Tris pH 7.5, 50 mM NaCl, 50 mM KCl, 1 mM MgCl2, 1 mM DTT, temperature not stated; EMSA (GlmY): 10 mM Tris pH 7.0, 100 mM KCl, 10 mM MgCl2, 1 ug …; scale: fold higher affinity than full-length RapZ
[2] = test system: RapZ full length (Strep-tag cleaved) (Escherichia coli); assay: BLI; details: 1 mM Mg2+; Kd values only in figure; incomplete dissociation; 5' biotin; BLI: 25 mM Tris pH 7.5, 50 mM NaCl, 50 mM KCl, 1 mM MgCl2, 1 mM DTT, temperature not stated; EMSA (GlmY): 10 mM Tris pH 7.0, 100 mM KCl, 10 mM MgCl2, 1 ug …
[3] = biological target: the molecule itself; assay: SEC-MALS + AUC; RapZ-CTD alone. SEC-MALS: 30 μM on Superdex 200 10/300 GL, 25 mM Tris pH 7.5, 200 mM KCl, 1 mM TCEP, 25°C. Sedimentation velocity AUC: 0.5–1 mg/ml, 20°C, 50 000 rpm
[4] = biological target: the molecule itself; assay: SEC-MALS; full-length RapZ alone, 30 μM on Superdex 200 10/300 GL, 25°C

GlmY processed (BLI) was tested, and the relative binding affinity [1] was 2 and the relative binding affinity (relative Kd-type affinity (reference)) [2] was 1.

In the case of GlmZ full length (BLI), the relative binding affinity [1] is reported as 2 and the relative binding affinity (relative Kd-type affinity (reference)) [2] is reported as 1.

With GlmZ processed (BLI) the relative binding affinity [1] was 2 and the relative binding affinity (relative Kd-type affinity (reference)) [2] was 1.

B1: RapZ-CTD (154–284) (domain or fragment, Escherichia coli, UniProt P0A894 154-284, looked up)
chain: GKRERELTMVFESFGFKHGIPIDADYVFDVRFLPNPHWDPKLRPMTGLDKPVAAFLDRHTEVHNFIYQTRSYLELWLPMLETNNRSYLTVAIGCTGGKHRSVYIAEQLADYFRSRGKNVQSRHRTLEKRKP
notes: RapZ, Escherichia coli, C-terminal domain, residues 154-284; also called C-terminal domain of RapZ; source: E. coli Rosetta, purified (Strep Trap, MonoS, gel filtration)
In the case of B1, the “stoichiometry N” value [3] is reported as 2.

B2: full length Escherichia coli RapZ (natural protein, UniProt P0A894 1-284, looked up)
chain: MVLMIVSGRSGSGKSVALRALEDMGFYCVDNLPVVLLPDLARTLADREISAAVSIDVRNMPESPEIFEQAMSNLPDAFSPQLLFLDADRNTLIRRYSDTRRLHPLSSKNLSLESAIDKESDLLEPLRSRADLIVDTSEMSVHELAEMLRTRLLGKRERELTMVFESFGFKHGIPIDADYVFDVRFLPNPHWDPKLRPMTGLDKPVAAFLDRHTEVHNFIYQTRSYLELWLPMLETNNRSYLTVAIGCTGGKHRSVYIAEQLADYFRSRGKNVQSRHRTLEKRKP
notes: RapZ (formerly YhbJ), Escherichia coli, full length, residues 1-284; also called YhbJ; full-length RapZ (1–284); source: E. coli Rosetta, purified (Strep Trap, heparin, gel filtration)
With B2 the “stoichiometry N” value [4] was 4.
